Test results taken from the supplement of paper PMC12042874.
± gives the uncertainty stated by the source.

Experiment: amyloid nucleation score (Sup35N fusion, yeast selection) (log enrichment); library NNK3; higher = more nucleation; inactive = no reads after selection
Procedure, shortened: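 Peptides of 20 random codons, each fused to Sup35N, were expressed in psi-negative yeast. Cells were induced with 100 μM copper sulfate for 24 hours and grown 7 days at 30°C on medium lacking adenine and uracil, and plasmid inserts before and after selection were Illumina-sequenced. Nucleation scores are DiMSum log enrichments of output over input reads, centred on the mode score of non-aggregating sequences, and sequences under 100 input reads were excluded.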
With LRFRLNSRVYTTHNIKVPSL the amyloid nucleation score was “inactive”.
In the case of NAHSHGYGSVPGR, the amyloid nucleation score is reported as “inactive”.
In the case of GSALCHCLCNMEVMSYFVAF, the amyloid nucleation score is reported as “inactive”.
In the case of ISAGNTRSTYRLGSWDTSRE, the amyloid nucleation score is reported as “inactive”.
In the case of FFSVGIKLDVFVWFWGEGHL, the amyloid nucleation score is reported as “inactive”.
In the case of GVTCKHRPAKYVQDRMNF, the amyloid nucleation score is reported as “inactive”.
In the case of ILPSYDLFEVVWLVRAD, the amyloid nucleation score is reported as “inactive”.
With YFVTFVYTKLLCNVRSLL the amyloid nucleation score was 0.578 ± 0.12.
In the case of QYHNQYHMIKRLYAFRARMG, the amyloid nucleation score is reported as “inactive”.
With KVILPWKLWADGWRDY the amyloid nucleation score was “inactive”.
With SNFINVGSRLMTSWRGYAYM the amyloid nucleation score was “inactive”.
In the case of FNVVMSRYIYYCVMGVIRMS, the amyloid nucleation score is reported as “inactive”.
For VLTSYGRNRH, the amyloid nucleation score was “inactive”.
In the case of FYTWLPCVYSN, the amyloid nucleation score is reported as -0.335 ± 1.7.
For HFQIIC, the amyloid nucleation score was “inactive”.
With RYPSDSIGFISLDTGGCGVR the amyloid nucleation score was “inactive”.
For MLDCF, the amyloid nucleation score was “inactive”.
For YYCTM, the amyloid nucleation score was “inactive”.
With ILVLTKRVCYGSLFRYAWAK the amyloid nucleation score was “inactive”.
With LNIQFFINLALAEGFLYNRK the amyloid nucleation score was 2.97 ± 0.084.
With FVVYL the amyloid nucleation score was “inactive”.
In the case of STLNGGSWVMIYAEDLTS, the amyloid nucleation score is reported as “inactive”.
For YQIMDPNRLAFVTDMLSRDL, the amyloid nucleation score was “inactive”.
For PNRNYVCGMSCYGAVVSELR, the amyloid nucleation score was “inactive”.
For VVEGSILACVNRGGKKYYDC, the amyloid nucleation score was “inactive”.
With TCTGCTSVTL the amyloid nucleation score was “inactive”.
With TNTRASMFIFCVHSMSLLFY the amyloid nucleation score was “inactive”.
For CFVAGYRSIGLLRFITIFCV, the amyloid nucleation score was “inactive”.
For KIGGVYVLVS, the amyloid nucleation score was “inactive”.
For YSPTAN, the amyloid nucleation score was “inactive”.
In the case of RTLRRLTGNSILFRYWSNKG, the amyloid nucleation score is reported as “inactive”.
For CSYAEKIVKGLAPVFLKVN, the amyloid nucleation score was “inactive”.
With NNEYQRKNLWFKGKVWLCMY the amyloid nucleation score was “inactive”.
In the case of YVLELGAGGPKNMIHDMNAD, the amyloid nucleation score is reported as “inactive”.
With AVMWYIPRDG the amyloid nucleation score was “inactive”.
For SFRRLDGNRNLFSSCRVNGL, the amyloid nucleation score was “inactive”.
Work on VEIGCANSRWDLLGVVCCLG yielded an amyloid nucleation score of 1.27 ± 0.17.
Substance NRLNIFIYSFNVAVVSI has an amyloid nucleation score of 2.31 ± 0.082.
For IDTISMG, the amyloid nucleation score was “inactive”.
GWTLQWIVWI showed an amyloid nucleation score of 0.081 ± 0.81.
In the case of FDIFQGDINLHFLDVNITR, the amyloid nucleation score is reported as 0.397 ± 0.75.
With FEYLLGKLCRLCSNAGRSLS the amyloid nucleation score was “inactive”.
For FANQPGVNYRFTPPSCCFLT, the amyloid nucleation score was “inactive”.
In the case of IIPKRLDVR, the amyloid nucleation score is reported as -0.397 ± 0.7.
In the case of SLIGNSDSPWFLRQTCTYTK, the amyloid nucleation score is reported as “inactive”.
KSFWVHMTGAFVCARYWCLP gave an amyloid nucleation score of 0.97 ± 0.17.
For LRWFFVHPQWIRGCGLAMLS, the amyloid nucleation score was “inactive”.
With YLSASYIVYFIITEYYSYIF the amyloid nucleation score was “inactive”.
In the case of ADFDDHDYLVMCDWWINMHS, the amyloid nucleation score is reported as “inactive”.
In the case of LRNSHGDDNVIRLVNNCNSV, the amyloid nucleation score is reported as “inactive”.
With FPWFTEASPPEMKLDK the amyloid nucleation score was 0.816 ± 0.23.
With QYKSMAGSLWFNSVQEQASK the amyloid nucleation score was “inactive”.
With ERFIKN the amyloid nucleation score was “inactive”.
For RCNISTRFLLLWTFSFLLVY, the amyloid nucleation score was “inactive”.
In the case of FFYRVSVSLSRAKI, the amyloid nucleation score is reported as “inactive”.
DELTNLPCY showed an amyloid nucleation score of -0.405 ± 0.79.
With CMNIRPMATLTESSS the amyloid nucleation score was “inactive”.
With LVLSVWKLKLSGLALIFWYG the amyloid nucleation score was “inactive”.
In the case of TLHCSVYMCTTYGNTHLYVH, the amyloid nucleation score is reported as 2.2 ± 0.063.
In the case of LSGSLTTISIITGGVDCD, the amyloid nucleation score is reported as “inactive”.
In the case of TRLLAGFSWYVTFPVNVSGS, the amyloid nucleation score is reported as “inactive”.
For IPSNHSINRCYLDIWAQFLG, the amyloid nucleation score was “inactive”.
In the case of VDSDHIIHSTVLISVLGELD, the amyloid nucleation score is reported as “inactive”.
For RTWNVESFREFGCFKINLGP, the amyloid nucleation score was “inactive”.
In the case of EIRRCTPCLLWVLLLFAINR, the amyloid nucleation score is reported as “inactive”.
In the case of FTYGMSSVFVGHF, the amyloid nucleation score is reported as “inactive”.
For YMLLCPRPRGRSLRINNNDE, the amyloid nucleation score was “inactive”.
With MVLCSKGIVNSARLAFKKSR the amyloid nucleation score was “inactive”.
In the case of NCLRLYQGSGKMFIIV, the amyloid nucleation score is reported as “inactive”.
For FDMFVLGMGCGILQYLICFK, the amyloid nucleation score was “inactive”.
In the case of NLLNSFIFSRLRRVEGGMFG, the amyloid nucleation score is reported as “inactive”.
FHVEVVAGCIVGNFGGVCVI showed an amyloid nucleation score of 0.5 ± 0.28.
With CVRFPANLSFGSDRKAKLS the amyloid nucleation score was “inactive”.
Work on WHSWAFGTGCGSRTFEG yielded an amyloid nucleation score of 0.526 ± 0.17.
In the case of LSAAFYDMETIGWISGSWVN, the amyloid nucleation score is reported as “inactive”.
For TVNYYRQNSIIMFESYNECC, the amyloid nucleation score was 0.579 ± 0.17.
With NRIGSKTCKFFMALGM the amyloid nucleation score was “inactive”.
For VSRPS, the amyloid nucleation score was “inactive”.
With GLLLVIFNGFGFNDYEEFGM the amyloid nucleation score was “inactive”.
In the case of MHFVELLRLALVL, the amyloid nucleation score is reported as “inactive”.
With DFEVSMGQR the amyloid nucleation score was -0.015 ± 0.8.
For KSFRIMMLRSWMLRLLKYQL, the amyloid nucleation score was “inactive”.
For LSKFFRWV, the amyloid nucleation score was “inactive”.
For SNSSYWRICRLETCNPVGYK, the amyloid nucleation score was “inactive”.
In the case of NRLYVKAELCSDAFRIVVAR, the amyloid nucleation score is reported as “inactive”.
With WYERGG the amyloid nucleation score was “inactive”.
In the case of WSRSACMGEGNLDVFSVWLL, the amyloid nucleation score is reported as “inactive”.
For WSVQMNRITDSSLDCMMMH, the amyloid nucleation score was “inactive”.
In the case of MMSDNDISLRRYFVQCLKSS, the amyloid nucleation score is reported as “inactive”.
For HRIVTPPNDLWGVWASTV, the amyloid nucleation score was “inactive”.
YSCSYNTSTN gave an amyloid nucleation score of -0.52 ± 0.68.
In the case of SFRMSTSCWSSGALMYRLYR, the amyloid nucleation score is reported as “inactive”.
For ARCECESSTRVSSLVYLSRE, the amyloid nucleation score was “inactive”.
With GNCTSVLDPSELVVYHCEGS the amyloid nucleation score was “inactive”.
In the case of THTTAS, the amyloid nucleation score is reported as “inactive”.
With LCTCTLCSLYV the amyloid nucleation score was “inactive”.
For MRLDRS, the amyloid nucleation score was “inactive”.
With IFYFHQFNCMPGLAFTSVIG the amyloid nucleation score was “inactive”.
In the case of KDADMDLLSRYATRCGVSRL, the amyloid nucleation score is reported as “inactive”.
For GGCGMDV, the amyloid nucleation score was “inactive”.
In the case of LSPWVSMILVKFKLHLYLRR, the amyloid nucleation score is reported as “inactive”.
In the case of DSLKSKFSKVLGPLNRACFY, the amyloid nucleation score is reported as “inactive”.
For EWKWQSKHTITYFLHHCSEH, the amyloid nucleation score was 0.534 ± 0.15.
In the case of EYIAI, the amyloid nucleation score is reported as “inactive”.
With IFACLHGAREVFLFQWLGFE the amyloid nucleation score was “inactive”.
With FNILSLSRTSNYPRHCLFRL the amyloid nucleation score was “inactive”.
In the case of LYDLTGPVSNLTISLLNVEY, the amyloid nucleation score is reported as “inactive”.
PSNMRG gave an amyloid nucleation score of 0.147 ± 0.34.
Work on VAWRLFQNVWVHTGSDGYTV yielded an amyloid nucleation score of -0.601 ± 1.1.
For GMSSLIGIDMNLSEKFGYPY, the amyloid nucleation score was “inactive”.
RCELCMSIKGLAVNNIR gave an amyloid nucleation score of 1.9 ± 0.1.
In the case of KAVVLGEWTRSFCSLDFNI, the amyloid nucleation score is reported as “inactive”.
For RHSLQMVRGTHSLCLWYNWV, the amyloid nucleation score was “inactive”.
For LYSETWEY, the amyloid nucleation score was “inactive”.
With DDLIGSIFKFLVLSRGKT the amyloid nucleation score was “inactive”.
VKYVNEPVSHSIDWIPSPFP gave an amyloid nucleation score of 0.559 ± 0.24.
For FYYSWSVFCICMYR, the amyloid nucleation score was “inactive”.
